This is an account of results in article doi:10.1101/2025.05.07.652689, “Structural features within precursor microRNA-20a regulate Dicer-TRBP processing” (bioRxiv, 2025).

The assay deals with T1, Recombinant human Dicer (FLAG-Dicer) (human, UniProt Q9UPY3 1-1922).
T1 construct: Dicer, human RNase III enzyme; source: Expi293 cells expressing FLAG-Dicer (University of Michigan Protein core), purified (M2 anti-FLAG resin)
The assay can be described thus: SEC; purified Dicer and TRBP mixed at a 1:3 molar ratio, concentrated, loaded on HiLoad 16/600 Superdex 200 in buffer D (20 mM Tris-HCl pH 8.0, 150 mM NaCl, 2 mM DTT). Particulars: both partners purified.

T1 sequence (Q9UPY3 whole entry): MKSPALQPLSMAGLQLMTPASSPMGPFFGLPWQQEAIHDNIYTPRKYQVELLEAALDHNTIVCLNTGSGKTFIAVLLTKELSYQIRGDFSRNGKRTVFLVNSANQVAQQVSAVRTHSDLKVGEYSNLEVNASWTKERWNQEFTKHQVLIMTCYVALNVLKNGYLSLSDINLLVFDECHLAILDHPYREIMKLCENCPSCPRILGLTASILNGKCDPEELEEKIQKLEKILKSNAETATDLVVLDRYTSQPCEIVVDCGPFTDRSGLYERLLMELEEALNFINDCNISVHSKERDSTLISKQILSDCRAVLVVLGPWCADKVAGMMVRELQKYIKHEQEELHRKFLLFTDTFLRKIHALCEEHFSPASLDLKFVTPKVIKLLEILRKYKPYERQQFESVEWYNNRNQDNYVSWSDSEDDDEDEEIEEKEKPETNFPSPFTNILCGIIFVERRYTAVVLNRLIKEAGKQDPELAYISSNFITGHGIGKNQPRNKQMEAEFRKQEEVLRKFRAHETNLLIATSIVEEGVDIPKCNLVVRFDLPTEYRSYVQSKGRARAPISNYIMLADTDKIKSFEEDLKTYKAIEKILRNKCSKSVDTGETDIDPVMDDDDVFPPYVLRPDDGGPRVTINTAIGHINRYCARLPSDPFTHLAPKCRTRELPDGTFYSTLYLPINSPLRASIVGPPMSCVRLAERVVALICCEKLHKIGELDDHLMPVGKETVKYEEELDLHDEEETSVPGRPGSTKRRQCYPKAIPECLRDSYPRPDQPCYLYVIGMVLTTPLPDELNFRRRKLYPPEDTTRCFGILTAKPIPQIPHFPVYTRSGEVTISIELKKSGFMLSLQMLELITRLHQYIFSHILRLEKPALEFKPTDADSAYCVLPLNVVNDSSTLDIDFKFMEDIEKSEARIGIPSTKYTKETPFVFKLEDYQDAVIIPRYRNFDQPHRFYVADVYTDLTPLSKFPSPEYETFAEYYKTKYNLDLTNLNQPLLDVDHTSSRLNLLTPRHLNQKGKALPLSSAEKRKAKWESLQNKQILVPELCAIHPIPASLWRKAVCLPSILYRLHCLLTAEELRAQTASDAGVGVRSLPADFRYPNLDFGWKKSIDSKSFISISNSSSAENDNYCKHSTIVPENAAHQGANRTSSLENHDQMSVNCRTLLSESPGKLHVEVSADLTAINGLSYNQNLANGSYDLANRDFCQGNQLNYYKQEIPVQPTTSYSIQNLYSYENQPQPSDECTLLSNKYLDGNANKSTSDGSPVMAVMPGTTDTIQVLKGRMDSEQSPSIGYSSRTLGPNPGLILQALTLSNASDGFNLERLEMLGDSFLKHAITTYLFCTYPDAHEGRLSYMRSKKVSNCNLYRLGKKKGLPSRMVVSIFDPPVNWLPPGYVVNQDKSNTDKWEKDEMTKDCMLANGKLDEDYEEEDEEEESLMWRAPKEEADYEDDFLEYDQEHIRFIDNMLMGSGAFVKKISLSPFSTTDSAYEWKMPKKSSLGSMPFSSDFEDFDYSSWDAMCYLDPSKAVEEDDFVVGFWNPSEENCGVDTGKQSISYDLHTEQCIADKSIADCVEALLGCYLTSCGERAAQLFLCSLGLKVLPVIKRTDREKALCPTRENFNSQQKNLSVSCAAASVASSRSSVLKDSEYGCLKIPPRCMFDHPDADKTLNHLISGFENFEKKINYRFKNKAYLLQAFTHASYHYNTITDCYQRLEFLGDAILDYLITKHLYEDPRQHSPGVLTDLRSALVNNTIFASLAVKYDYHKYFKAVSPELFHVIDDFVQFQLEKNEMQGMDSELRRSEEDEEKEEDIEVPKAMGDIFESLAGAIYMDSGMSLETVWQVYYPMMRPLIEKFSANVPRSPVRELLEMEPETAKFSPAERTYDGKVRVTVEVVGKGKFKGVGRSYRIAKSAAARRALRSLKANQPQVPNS

B1: human transactivation response element RNA-binding protein (TRBP) (natural protein, UniProt Q15633 1-366, looked up)
chain: MSEEEQGSGTTTGCGLPSIEQMLAANPGKTPISLLQEYGTRIGKTPVYDLLKAEGQAHQPNFTFRVTVGDTSCTGQGPSKKAAKHKAAEVALKHLKGGSMLEPALEDSSSFSPLDSSLPEDIPVFTAAAAATPVPSVVLTRSPPMELQPPVSPQQSECNPVGALQELVVQKGWRLPEYTVTQESGPAHRKEFTMTCRVERFIEIGSGTSKKLAKRNAAAKMLLRVHTVPLDARDGNEVEPDDDHFSIGVGSRLDGLRNRGPGCTWDSLRNSVGEKILSLRSCSLGSLGALGPACCRVLSELSEEQAFHVSYLDIEELSLSGLCQCLVELSTQPATVCHGSATTREAARGEAARRALQYLKIMAGSK
notes: TRBP, human, from plasmid pET28a-TRBP; The construct is that of Addgene plasmid #50351
As to B1, the binding result is given as “binds”.
